Measurements published in doi:10.1101/2025.06.16.659985, “Dynamic assembly of malate dehydrogenase-citrate synthase multienzyme complex in the mitochondria” (bioRxiv, 2025).

T1: recombinant yeast MDH1, fluorescently labeled (yeast (Saccharomyces cerevisiae), UniProt P17505 18-334, labeled with Protein Labeling Kit RED-NHS 2nd Generation (NanoTemper))
T1 chain: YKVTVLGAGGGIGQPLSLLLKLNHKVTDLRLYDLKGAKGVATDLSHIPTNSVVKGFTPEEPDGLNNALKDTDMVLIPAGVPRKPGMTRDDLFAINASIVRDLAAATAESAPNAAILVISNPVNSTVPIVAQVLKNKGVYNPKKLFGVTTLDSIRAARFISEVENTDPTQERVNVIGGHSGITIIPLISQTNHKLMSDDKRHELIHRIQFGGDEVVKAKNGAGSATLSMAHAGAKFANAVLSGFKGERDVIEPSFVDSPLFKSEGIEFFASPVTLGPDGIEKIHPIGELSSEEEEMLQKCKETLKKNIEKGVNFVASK

T2: recombinant yeast CIT1 (yeast (Saccharomyces cerevisiae), UniProt P00890 38-479)
T2 construct: citrate synthase CIT1, mitochondrial, yeast (Saccharomyces cerevisiae); also called recombinant CIT1; source: recombinant; produced according to the Supplementary Methods
T2 sequence (looked up): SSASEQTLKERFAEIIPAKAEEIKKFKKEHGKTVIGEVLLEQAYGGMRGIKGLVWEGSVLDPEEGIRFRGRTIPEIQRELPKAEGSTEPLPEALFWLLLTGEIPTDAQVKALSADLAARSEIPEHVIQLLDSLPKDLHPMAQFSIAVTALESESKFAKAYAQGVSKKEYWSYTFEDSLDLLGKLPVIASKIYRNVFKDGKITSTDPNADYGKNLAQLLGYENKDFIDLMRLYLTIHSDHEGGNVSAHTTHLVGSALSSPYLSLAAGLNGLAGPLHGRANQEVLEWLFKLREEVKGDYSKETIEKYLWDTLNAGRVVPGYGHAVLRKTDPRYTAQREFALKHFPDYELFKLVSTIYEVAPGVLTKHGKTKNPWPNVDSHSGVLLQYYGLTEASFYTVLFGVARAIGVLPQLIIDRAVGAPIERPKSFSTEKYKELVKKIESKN

B1: recombinant yeast CIT1 (enzyme)
chain: T2 sequence (looked up)
B2: recombinant yeast MDH1, fluorescently labeled (enzyme, yeast (Saccharomyces cerevisiae), UniProt P17505 18-334, looked up)
chain: T1 chain
modifications: labeled with Protein Labeling Kit RED-NHS 2nd Generation (NanoTemper)
notes: malate dehydrogenase MDH1, mitochondrial, yeast (Saccharomyces cerevisiae); also called recombinant MDH1; labeled MDH1; source: recombinant; produced according to the Supplementary Methods

How the values were obtained:
[1] = target: T1, recombinant yeast MDH1, fluorescently …; assay: MST; pH 6.8
[2] = target: T1, recombinant yeast MDH1, fluorescently …; assay: MST; 10 mM malate
[3] = target: T1, recombinant yeast MDH1, fluorescently …; assay: MST; 10 mM fumarate
[4] = target: T1, recombinant yeast MDH1, fluorescently …; assay: MST; control (no metabolite)
recombinant yeast CIT1 [5] = target: T2, recombinant yeast CIT1; assay: MST; labeled MDH1 as target, CIT1 titrated (two-fold dilutions of 80 μM, 16 concentrations), Monolith NT.115, room temperature; buffer pH 6.0; conditions: both partners purified
recombinant yeast CIT1 [6] = target: T2, recombinant yeast CIT1; assay: MST; labeled MDH1 as target, CIT1 titrated (two-fold dilutions of 80 μM, 16 concentrations), Monolith NT.115, room temperature; buffer pH 6.4; conditions: both partners purified
recombinant yeast CIT1 [7] = target: T2, recombinant yeast CIT1; assay: MST; labeled MDH1 as target, CIT1 titrated (two-fold dilutions of 80 μM, 16 concentrations), Monolith NT.115, room temperature; buffer pH 7.2; conditions: both partners purified

| Binder | Kd [1] [nM] | Kd [2] [nM] | Kd [3] [nM] | Kd [4] [nM] | Kd (recombinant yeast CIT1 [5]) [nM] | Kd (recombinant yeast CIT1 [6]) [nM] | Kd (recombinant yeast CIT1 [7]) [nM] |
| --- | --- | --- | --- | --- | --- | --- | --- |
| B1 | 2720 | 367 | 288 | 6070 |  |  |  |
| B2 |  |  |  |  | 33 | 223 | 3480 |
